Results reported in the supplement of paper PMC9732359.
± gives the uncertainty stated by the source.

Experiment: protein stability index of a GFP-peptide fusion (yeast GPS) (PSI 1-4); higher = more stable; sorted into four equal gates, so the index is relative within each strain
In short: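 Mid-log yeast cultures in leucine-free medium, carrying a pooled plasmid library, were sorted into four equal gates by their GFP/Cherry fluorescence ratio. Each plasmid expressed Cherry along with GFP fused upstream of a tiled 17-residue yeast protein peptide. Plasmids recovered from each gate were PCR-amplified and Illumina-sequenced, with reads assigned to strains by barcodes. The protein stability index was obtained by summing each gate's read frequency weighted by its gate number.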

Sequence | protein stability index (pdr5∆) | protein stability index (san1∆) | protein stability index (doa10∆) | protein stability index (ubr1∆)
SLNFIPITASTSRVFAK [YML103C/NUP188] | 1.58 ± 0.28 | 2.06 ± 0.26 | – | –
SLNNSDSLISGVKQKIT [BRR2] | 1.87 ± 0.056 | 1.61 ± 0.16 | 2 ± 0.085 | 2.31 ± 0.049
SLPEELKKRYDLSYNFN [YMR129W/POM152] | 2.67 ± 0.094 | 2.9 ± 0.08 | 2.84 ± 0.1 | 2.94 ± 0.091
SLPHFPKNSKTPQSKGF [RPO31] | 3.08 ± 0.22 | 2.67 ± 0.18 | 2.94 ± 0.23 | 2.98 ± 0.21
SLQEDVSFDFNGVPGQA [MED8] | 2.97 ± 0.057 | 2.64 ± 0.086 | 2.41 ± 0.06 | 3 ± 0.053
SLQSCSVAVHFQYVIDE [SMC4] | 1.3 ± 0.039 | 1.47 ± 0.084 | 1.82 ± 0.082 | 1.54 ± 0.048
SLRSNVVVAETSPEKKD [YAR002W/NUP60] | 2.63 ± 0.063 | 2.21 ± 0.069 | 2.23 ± 0.05 | 2.4 ± 0.061
SLSAYNLTDEGYQWGEE [PRP8] | 3.12 ± 0.15 | – | 3.33 ± 0.22 | 3.33 ± 0.19
SLSEFARRRQPTDQNNQ [SNF2] | 3.12 ± 0.13 | 3.1 ± 0.067 | 2.89 ± 0.11 | 2.87 ± 0.1
SLSIEENIPVALCKNRK [POP1] | 2.98 ± 0.1 | 2.75 ± 0.18 | 2.76 ± 0.07 | 2.95 ± 0.1
SLTLSFIRHVAKLNYKN [ECM29] | 2.87 ± 0.088 | 2.91 ± 0.054 | 2.7 ± 0.092 | 2.92 ± 0.048
SLVEVVFYRGMTMQVAV [FAS1] | 1.88 ± 0.059 | 1.4 ± 0.11 | 1.32 ± 0.06 | 1.99 ± 0.12
SMERKVQGAAPWDTSLE [MCD1] | 3.1 ± 0.089 | 3.25 ± 0.087 | 3.5 ± 0.11 | 3.44 ± 0.16
SMGSILLSFVLGVVFGR [YML031W/NDC1] | 2.13 ± 0.043 | 2.56 ± 0.055 | 2.39 ± 0.046 | 2.64 ± 0.059
SMKYDNGVIIAADNLGS [PRE4] | 3.35 ± 0.088 | 2.5 ± 0.13 | 2.66 ± 0.15 | 3.06 ± 0.11
SMMSDGIEHFDIPPPAI [RPO31] | 1.81 ± 0.13 | 1.92 ± 0.17 | 1.97 ± 0.16 | 2.06 ± 0.15
SMQTIAETIILSSAGKN [SRB5] | 2.39 ± 0.048 | 1.8 ± 0.055 | 2.09 ± 0.045 | 1.9 ± 0.029
SMSEEFKYVSVRYEEKR [BRR2] | 3.38 ± 0.14 | 3.12 ± 0.22 | 3.41 ± 0.2 | –
SMVLFFVCLSCSHIFTS [RPB9] | 1.4 ± 0.081 | 1.43 ± 0.14 | 1.55 ± 0.073 | 1.67 ± 0.095
SNEAAKPSFSFPGKPVD [YOR098C/NUP1] | 2.96 ± 0.048 | 3.01 ± 0.038 | 2.84 ± 0.048 | 2.95 ± 0.047
SNFADSADYEILYEIRA [YDL116W/NUP84] | 1.61 ± 0.097 | 2.42 ± 0.19 | 1.83 ± 0.081 | 1.71 ± 0.099
SNGEVLEVGKNNFCALY [RPN14] | 2.05 ± 0.11 | 1.64 ± 0.14 | 2.34 ± 0.07 | 2.05 ± 0.036
SNGPRAAKKRRPAAKGK [RRP6] | 3.2 ± 0.11 | 3.12 ± 0.08 | 2.97 ± 0.12 | 3.17 ± 0.085
SNGSGIVAAGGGSGAAT [CSL4] | 3.53 ± 0.18 | 3.45 ± 0.11 | 3.53 ± 0.12 | 3.48 ± 0.11
SNGVLNVDNQTSDLVKS [RPS17A] | 2.88 ± 0.12 | 3.06 ± 0.18 | 2.83 ± 0.12 | 2.86 ± 0.075

Sequence | protein stability index (pdr5∆) | protein stability index (san1∆) | protein stability index (doa10∆) | protein stability index (ubr1∆)
SNIGNNSINNNNIKNGT [YDL088C/ASM4] | 2.85 ± 0.057 | 2.85 ± 0.047 | 2.72 ± 0.047 | 2.65 ± 0.042
SNIPTLIEKLQGFSKDT [YDL116W/NUP84] | 3.23 ± 0.088 | 3.01 ± 0.05 | 3.22 ± 0.1 | 3.17 ± 0.073
SNLEKLLFINSSKLVDV [YML103C/NUP188] | 2.07 ± 0.066 | 1.83 ± 0.12 | 2.48 ± 0.094 | 2.62 ± 0.082
SNMLGSNEDVMMTGAEQ [RPB3] | 3.35 ± 0.12 | 3.26 ± 0.1 | 3.47 ± 0.22 | 3.08 ± 0.089
SNNQVIKMQRQFSQLND [MED6] | 3.04 ± 0.059 | 3.03 ± 0.064 | 3.01 ± 0.073 | 3.18 ± 0.06
SNNSTTNTFGSNSAGTS [YJL041W/NSP1] | 3.2 ± 0.14 | – | 3.08 ± 0.18 | 3.05 ± 0.18
SNQAVGQTWNFPEVFQV [SRB8] | 3.36 ± 0.2 | 3.11 ± 0.14 | 3.11 ± 0.21 | –
SNSALFRAVGEGNAQLV [FAS1] | 2.37 ± 0.11 | 2.27 ± 0.096 | 2.15 ± 0.11 | 1.94 ± 0.09
SNSANVSSPESEKNKRQ [ITC1] | 3.1 ± 0.045 | 2.95 ± 0.036 | 2.93 ± 0.06 | 3.09 ± 0.033
SNSNVTNPSSIFGGAGG [YOR098C/NUP1] | 2.77 ± 0.05 | 2.29 ± 0.052 | 2.89 ± 0.049 | 2.87 ± 0.045
SNTDETKGENYQLVKTL [FAS2] | 3.06 ± 0.081 | 2.81 ± 0.076 | 2.94 ± 0.081 | 3.25 ± 0.084
SNTEPIPRSNRHGSVVE [MED1] | 3.22 ± 0.23 | 2.72 ± 0.17 | 2.23 ± 0.17 | –
SNVYLSLVNSYIIDSPQ [COB] | 1.81 ± 0.056 | 2.24 ± 0.071 | 1.76 ± 0.047 | 1.71 ± 0.052
SPDKIGTFTADYSKPNL [SSN2] | 3 ± 0.066 | 2.65 ± 0.08 | 2.81 ± 0.094 | 2.92 ± 0.064
SPELSLQRHLSLGIRPC [RRP43] | 2.65 ± 0.053 | 2.73 ± 0.052 | 2.54 ± 0.041 | 3.06 ± 0.048
SPMLSISNLTQEQVQDY [FAS1] | 2.97 ± 0.047 | 2.98 ± 0.05 | 2.97 ± 0.058 | 3.09 ± 0.044
SPQLTAIIGLKSGTSHD [SNF12] | 1.82 ± 0.074 | 1.84 ± 0.12 | 1.52 ± 0.067 | 1.66 ± 0.065
SPSPILLTSAGCKNGSF [NUT1] | 2.06 ± 0.052 | 1.61 ± 0.24 | 2.01 ± 0.1 | 2.41 ± 0.073
SPTENGVFDPASYSKYL [RPL22B] | 3.25 ± 0.083 | 3.05 ± 0.066 | 3.18 ± 0.074 | 2.87 ± 0.06
SPVQDWNLLRSLYIFFT [YML103C/NUP188] | 1.71 ± 0.053 | 2.25 ± 0.069 | 2.38 ± 0.079 | 1.95 ± 0.042
SPVTGDNSPSEDFMDIP [SNF2] | 3.25 ± 0.1 | 2.81 ± 0.17 | 3.21 ± 0.12 | 3.42 ± 0.058
SQIIARNEEILRDIGEC [SMC2] | 2.46 ± 0.091 | 2.85 ± 0.062 | 2.79 ± 0.077 | 3.07 ± 0.084
SQPFIKFLNFRPPNGIK [SSN2] | 2.31 ± 0.05 | 2.23 ± 0.06 | 2.65 ± 0.052 | 2.4 ± 0.039
SQSACREMALCRELHNK [SSN3] | 2.38 ± 0.073 | 2.55 ± 0.11 | 2.42 ± 0.089 | 2.8 ± 0.067
SQTQLENANAANNGAAF [MED2] | 2.75 ± 0.051 | 2.85 ± 0.053 | 2.71 ± 0.054 | 1.74 ± 0.032
